Laboratory results taken from article PMC9736018.

What follows are sequences tested against T1, PA3973-His6 (Pseudomonas aeruginosa PAO1161) (UniProt Q9HX43) (assay: EMSA). Details: 10 mM Tris-HCl pH 8.5, 10 mM MgCl2, 100 mM KCl, 0.1 mg/mL BSA; ~100 ng DNA plus ~300 ng NS competitor in 20 uL; 23 C, 30 min; 1.5% agarose, 0.5x TBE, 4 C ….
T1 sequence: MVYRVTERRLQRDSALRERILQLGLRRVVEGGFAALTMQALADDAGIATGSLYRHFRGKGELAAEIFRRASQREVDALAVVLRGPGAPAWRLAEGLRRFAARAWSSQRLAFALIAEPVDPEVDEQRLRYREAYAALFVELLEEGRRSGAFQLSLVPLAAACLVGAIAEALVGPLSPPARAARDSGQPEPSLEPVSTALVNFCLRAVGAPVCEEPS
With “GCGAATTCGCATGCGGCGCTGGAGATTCCCGGCGAGGGCGCGGTGGGCATGTGCTGGCGCGACGAACCGCACCGCGACCGTGCCAGCGAAGACCTGCTGGCCTGCCTGCGCGAAGGCGCGGCGGCCGAGTAGGGCGCCGGCCGGCGGGTGCTATTGCAAAAAGGCCGCGGCTTCTCGACAATGCGATTCATTATCATTCATGTGTCGCCCCGACTTTCCCATGGGATCCGC (double strand) [PA2468p]” the binding was “binds more weakly”.
For “GCGAATTCGCATGCGATGGGCGGGAATTGTTGGTCGATTTATGACTTGTAGTTTCTCTGTCGTATGCCTTCAGAACTTGTTGAAGGCTTTTCGGCTCGATTGCACAATGCCGCGCCAAGGTTCGTTCGCGAATCGCGGTATGTGAGCTAGACCTCCGCAGCCGGTGCGCCATCCGCAGTGCCCCGGACTACTCGACAATCACGCAGGAGATTCGTGAGGATCCGC (double strand) [PA0195p]”, the binding was “binds”.
In the case of “GCGAATTCGCATGCCACCACGGTTGATCCATAGGCTTCGGTCCGCGCTGCGGTGGCGCGGGCGGCGCCCATGATACCGATTCCCCGGGGCGGTGGGGCGCCGCGGAAGGGACGGGCGTAGGAGATTTCATATTTCGCAATGAGGAATCTATTCCCCATTGAGGAATGTTCTGGTGGCGTGATAGCCTGAATGGAAAAGAGAGTCATTCCCATTTGGAGAAGATCCTGGATCCGC (double strand) [PA4156p]”, the binding is reported as “binds more weakly”.
With “GAGAATTCGCATGCCAATGGCGGCGAGGAAAGCGCCTGCGGCTGGTGCCGTGACAAGTGGGGCATCTCCTGGCAGATCACCCCGCGCGTACTCAGCGAAGCCATCGCCAGCCCCGACCGCGCGGCGGCCAGGCGCGCCTTCGAGGCGATGATGACGATGGGCAGGATCGATATCGCCACCATAGAGAAGGCCTTCAAGGGCTGAACGCCCCAACGCCTTGCAAAGGAGTCACGAAGGATCCGC (double strand) [PA2722p]” the binding was “binds”.
For “GAGGATCCGGGGCGGGCTCCGGAGGGTGTTCAGCTCCTAGCATAGCGCCCTCGCCTTGCGCCGTTCAGACCTTCGCGCAGCGCCCCTCGCGGCCGCGCGCCAGTTCCCTGTTGTCCTGGTCGTAGAGCTTCGCCCAGGGACGGAAGCCGATGTGCCCGGCCTCCAGGCGGTAGCGCTGGCCGGCGCTGAAGTCCTTGAACTTGAGGTTGAGCTGGCAATCGCGCCAGAGCGGGCTGTCCACGGGGCCGGCATGCGAATTCGC (double strand) [PA0061p]”, the binding was “binds”.
For “GAGGATCCGTGGGACTCCTTGGGTCGGGCCGGTGGCGAATAGCCAGGGGGACGTCGGGCGCACAAGGTACTGCCAGAAAAACGCTAATGCAAATAATTATCAAATGGATTCAGATATGCGTTTTGTGGCAAAGTTCACCTGTTTTTGCGCGTAGCGCGACCGAACCGGATATGCCCGAGGAACCGTCGATGAGCAGCACTCCCAGCCTTTCCCATTCCCCTGCCGAGCGCATGCGAATTCGC (double strand) [PA4710p]”, the binding was “binds more weakly”.
